Laboratory results taken from patent US20190077860A1 (EISAI R AND D MANAGEMENT, published 2019).
Where a chain is given by its changes, count along the chain named. Names and notes keep the numbering of the source.

T1: human EphA10 extracellular region-SEAP-His protein (human, UniProt Q5JZY3 34-565)
T1 construct: extracellular domain; also called hEphA10-SEAP-His
T1 sequence (looked up): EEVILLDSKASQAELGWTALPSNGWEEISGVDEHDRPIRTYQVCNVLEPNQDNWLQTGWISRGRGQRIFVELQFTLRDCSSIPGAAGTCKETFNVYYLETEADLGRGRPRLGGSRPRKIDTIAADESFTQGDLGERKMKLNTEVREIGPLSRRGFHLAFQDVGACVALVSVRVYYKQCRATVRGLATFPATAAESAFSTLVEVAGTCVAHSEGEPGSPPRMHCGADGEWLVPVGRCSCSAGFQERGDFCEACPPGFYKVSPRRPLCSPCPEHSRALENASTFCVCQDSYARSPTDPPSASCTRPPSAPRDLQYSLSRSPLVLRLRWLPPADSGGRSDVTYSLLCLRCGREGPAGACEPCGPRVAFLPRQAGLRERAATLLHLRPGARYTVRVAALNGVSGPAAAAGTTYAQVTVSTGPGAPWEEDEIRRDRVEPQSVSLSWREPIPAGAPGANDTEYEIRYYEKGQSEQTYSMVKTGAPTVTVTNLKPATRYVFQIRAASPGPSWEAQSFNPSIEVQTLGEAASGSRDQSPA

T2: human EphB3 extracellular region-SEAP-His protein (human, UniProt P54753 34-559)
T2 construct: extracellular domain; also called hEphB3-SEAP-His
T2 sequence (looked up): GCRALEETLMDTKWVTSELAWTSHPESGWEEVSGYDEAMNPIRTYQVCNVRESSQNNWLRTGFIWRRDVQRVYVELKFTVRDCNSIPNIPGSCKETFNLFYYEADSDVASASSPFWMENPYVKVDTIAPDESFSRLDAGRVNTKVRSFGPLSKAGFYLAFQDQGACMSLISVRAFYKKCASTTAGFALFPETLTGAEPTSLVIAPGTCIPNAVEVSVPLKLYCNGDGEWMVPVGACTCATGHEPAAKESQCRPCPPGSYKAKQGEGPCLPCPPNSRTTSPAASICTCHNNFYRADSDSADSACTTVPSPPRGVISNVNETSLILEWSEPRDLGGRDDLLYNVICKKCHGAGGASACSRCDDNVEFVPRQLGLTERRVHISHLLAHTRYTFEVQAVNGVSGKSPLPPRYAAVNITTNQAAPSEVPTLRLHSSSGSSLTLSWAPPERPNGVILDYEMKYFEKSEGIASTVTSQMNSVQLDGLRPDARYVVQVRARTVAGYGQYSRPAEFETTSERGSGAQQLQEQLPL

B1: humanized antibody No. 76 (antibody, human IgG1, kappa)
heavy: QVQLVQSGSELKKPGASVKVSCKASGYTFTDYSMHWVRQAPGQGLKWMGWINTETGEPTYAQGFTGRFVFSLDTSVSTAYLQISSLKAEDTAVYYCARIPLYYYGSRYWYFDVWGQGTTVTVSSASTKGPSVFPLAPSSKSTSGGTAALGCLVKDYFPEPVTVSWNSGALTSGVHTFPAVLQSSGLYSLSSVVTVPSSSLGTQTYICNVNHKPSNTKVDKRVEPKSCDKTHTCPPCPAPPAAAPSVFLFPPKPKDTLMISRTPEVTCVVVDVSHEDPEVQFNWYVDGVEVHNAKTKPREEQFNSTFRVVSVLTVVHQDWLNGKEYKCKVSNKGLPAPIEKTISKTKGQPREPQVYTLPPSREEMTKNQVSLTCLVKGFYPSDIAVEWESNGQPENNYKTTPPMLDSDGSFFLYSKLTVDKSRWQQGNVFSCSVMHEALHNHYTQKSLSLSPG
light: DIQMTQSPSSLSASVGDRVTITCRASENIYRNLAWYQQKPGKAPKLLVYAATNLADGVPSRFSGSGSGTDYTLTISSLQPEDFATYYCQHFWGTPWTFGQGTKVEIKRTVAAPSVFIFPPSDEQLKSGTASVVCLLNNFYPREAKVQWKVDNALQSGNSQESVTEQDSKDSTYSLSSTLTLSKADYEKHKVYACEVTHQGLSSPVTKSFNRGEC
notes: human Ig kappa; also called L1-4/HA2
B2: humanized antibody No. 140 (antibody, human IgG2)
heavy: QVQLVQSGSELKKPGASVKVSCKASGYTFTDYSMHWVRQAPGQGLKWMGWINTETGEPTYAQGFTGRFVFSLDTSVSTAYLQISSLKAEDTAVYYCARIPLYYYGSRYWYFDVWGQGTTVTVSSASTKGPSVFPLAPSSRSTSESTAALGCLVKDYFPEPVTVSWNSGALTSGVHTFPAVLQSSGLYSLSSVVTVPSSNFGTQTYTCNVDHKPSNTKVDKTVERKSCVECPPCPAPPAAAPSVFLFPPKPKDTLMISRTPEVTCVVVDVSHEDPEVQFNWYVDGVEVHNAKTKPREEQFNSTFRVVSVLTVVHQDWLNGKEYKCKVSNKGLPAPIEKTISKTKGQPREPQVYTLPPSREEMTKNQVSLTCLVKGFYPSDIAVEWESNGQPENNYKTTPPMLDSDGSFFLYSKLTVDKSRWQQGNVFSCSVMHEALHNHYTQKSLSLSPG
light: B1 light
notes: as for B1
B3: humanized antibody No. 84 (antibody, human IgG1, kappa)
heavy: B1 heavy with K46E, Q62D, G63D, T65K
light: B1 light with V48L, P80S
notes: human Ig kappa; also called L1-5/HK1
B4: humanized antibody No. 85 (antibody, human IgG1, kappa)
heavy: B1 heavy with Q62D, G63D, T65K
light: B1 light with V48L, P80S
notes: human Ig kappa; also called L1-5/HK2
B5: humanized antibody No. 91 (antibody, human IgG1, kappa)
heavy: B1 heavy with Q62D, G63D, T65K
light: B1 light with K45Q, V48L
notes: human Ig kappa; also called L1-6/HK2
B6: humanized antibody No. 83 (antibody, human IgG1, kappa)
heavy: B1 heavy with V2I
light: B1 light with V48L, P80S
notes: human Ig kappa; also called L1-5/HA4
B7: humanized antibody No. 77 (antibody, human IgG1, kappa)
heavy: B1 heavy with K46E, Q62D, G63D, T65K
light: B1 light
notes: human Ig kappa; also called L1-4/HK1
B8: humanized antibody No. 151 (antibody, human IgG2)
heavy: B2 heavy with V2I
light: B1 light with V48L, P80S
notes: as for B6
B9: humanized antibody No. 144 (antibody, human IgG2)
heavy: B2 heavy with K46E, Q62D, G63D, T65K
light: B1 light with K45Q, V48L
notes: human Ig kappa; also called L1-6/HK1
B10: humanized antibody No. 92 (antibody, human IgG1, kappa)
heavy: B1 heavy with V2I, Q62D, G63D, T65K
light: B1 light with K45Q, V48L
notes: human Ig kappa; also called L1-6/HK4
B11: humanized antibody No. 78 (antibody, human IgG1, kappa)
heavy: B1 heavy with Q62D, G63D, T65K
light: B1 light
notes: human Ig kappa; also called L1-4/HK2
B12: humanized antibody No. 69 (antibody, human IgG1, kappa)
heavy: B1 heavy with V2I, Q62D, G63D, T65K
light: B1 light
notes: human Ig kappa; also called L1-4/HK4
B13: humanized antibody No. 145 (antibody, human IgG2)
heavy: B2 heavy with Q62D, G63D, T65K
light: B1 light with V48L, P80S
notes: as for B4
B14: humanized antibody No. 90 (antibody, human IgG1, kappa)
heavy: B1 heavy with K46E, Q62D, G63D, T65K
light: B1 light with K45Q, V48L
notes: as for B9
B15: humanized antibody No. 86 (antibody, human IgG1, kappa)
heavy: B1 heavy with V2I, Q62D, G63D, T65K
light: B1 light with V48L, P80S
notes: human Ig kappa; also called L1-5/HK4
B16: humanized antibody No. 139 (antibody, human IgG2)
heavy: B2 heavy with K46E
light: B1 light
notes: human Ig kappa; also called L1-4/HA1
B17: humanized antibody No. 142 (antibody, human IgG2)
heavy: B2 heavy with Q62D, G63D, T65K
light: B1 light
notes: as for B11
B18: humanized antibody No. 82 (antibody, human IgG1, kappa)
heavy: B1 heavy
light: B1 light with V48L, P80S
notes: human Ig kappa; also called L1-5/HA2
B19: humanized antibody No. 143 (antibody, human IgG2)
heavy: B2 heavy with V2I, Q62D, G63D, T65K
light: B1 light
notes: as for B12
B20: humanized antibody No. 89 (antibody, human IgG1, kappa)
heavy: B1 heavy with V2I
light: B1 light with K45Q, V48L
notes: human Ig kappa; also called L1-6/HA4
B21: humanized antibody No. 81 (antibody, human IgG1, kappa)
heavy: B1 heavy with K46E
light: B1 light with V48L, P80S
notes: human Ig kappa; also called L1-5/HA1
B22: humanized antibody No. 75 (antibody, human IgG1, kappa)
heavy: B1 heavy with K46E
light: B1 light
notes: constant region: human IgG1 CH1 and hinge, human IgG2 CH2 and CH3 with V234A, G237A, no C-terminal Lys; human Ig kappa; also called L1-4/HA1
B23: humanized antibody No. 138 (antibody, human IgG2)
heavy: B2 heavy with V2I
light: B1 light
notes: human Ig kappa; also called L1-4/HA4
B24: humanized antibody No. 88 (antibody, human IgG1, kappa)
heavy: B1 heavy
light: B1 light with K45Q, V48L
notes: human Ig kappa; also called L1-6/HA2
B25: humanized antibody No. 67 (antibody, human IgG1, kappa)
heavy: B1 heavy with V2I
light: B1 light
notes: as for B23
B26: humanized antibody No. 87 (antibody, human IgG1, kappa)
heavy: B1 heavy with K46E
light: B1 light with K45Q, V48L
notes: human Ig kappa; also called L1-6/HA1
B27: humanized antibody No. 141 (antibody, human IgG2)
heavy: B2 heavy with K46E, Q62D, G63D, T65K
light: B1 light
notes: as for B7

The binders below were run against T1, human EphA10 extracellular … (assay: ELISA).

Row | A450 as % of hEphA4-SEAP-His [%] | Binder
1 | 4.7 | B1
2 | 5.2 | B2
3 | 5.1 | B3
4 | 5 | B4
5 | 8.5 | B5
6 | 5.6 | B6
7 | 4.5 | B7
8 | 6.6 | B8
9 | 5.7 | B9
10 | 6.6 | B10
11 | 5.2 | B11
12 | 5.4 | B12
13 | 6.5 | B13
14 | 5.1 | B14
15 | 5.6 | B15
16 | 5.5 | B16
17 | 5.4 | B17
18 | 5.4 | B18
19 | 5.2 | B19
20 | 5.7 | B20
21 | 4.8 | B21
22 | 4.4 | B22
23 | 5 | B23
24 | 5.8 | B24
25 | 4.6 | B25
26 | 5.2 | B26
27 | 5.2 | B27

The binders below were run against T2, human EphB3 extracellular … (assay: ELISA).

Row | A450 as % of hEphA4-SEAP-His [%] | Binder
28 | 5 | B1
29 | 5.4 | B2
30 | 4.8 | B3
31 | 5.2 | B4
32 | 7 | B5
33 | 5.7 | B6
34 | 4.6 | B7
35 | 7.3 | B8
36 | 5.8 | B9
37 | 6.9 | B10
38 | 5.2 | B11
39 | 5.9 | B12
40 | 6.7 | B13
41 | 5.1 | B14
42 | 5.9 | B15
43 | 5.6 | B16
44 | 5.6 | B17
45 | 5.6 | B18
46 | 5.9 | B19
47 | 5.7 | B20
48 | 4.9 | B21
49 | 4.7 | B22
50 | 5.1 | B23
51 | 6.3 | B24
52 | 4.9 | B25
53 | 5.5 | B26
54 | 5.2 | B27
